# Laboratory results reported in paper PMC3142331 (2011).
# T1: RNA polymerase II CTD tetraheptad CTD (UniProt P24928, CTD Ser5 phosphorylation)
# T1 chain: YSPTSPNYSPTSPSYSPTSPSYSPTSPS
# B1: Mce (protein)
# chain: not shown
# Biological target: T1, RNA polymerase II CTD tetraheptad CTD
# Assay: guanylyltransferase stimulation assay
binder,measurement,value
B1,Kd,1500 nM
